Assay results reported in publication PMC5737387 (Nucleic Acids Research, 2017).

B1: full length p34hs (natural protein)
chain: MVSDEDELNLLVIVVDANPIWWGKQALKESQFTLSKCIDAVMVLGNSHLFMNRSNKLAVIASHIQESRFLYPGKNGRLGDFFGDPGNPPEFNPSGSKDGKYELLTSANEVIVEEIKDLMTKSDIKGQHTETLLAGSLAKALCYIHRMNKEVKDNQEMKSRILVIKAAEDSALQYMNFMNVIFAAQKQNILIDACVLDSDSGLLQQACDITGGLYLKVPQMPSLLQYLLWVFLPDQDQRSQLILPPPVHVDYRAACFCHRNLIEIGYVCSVCLSIFCNFSPICTTCETAFKISLPPVLKAKKKKLKVSA

Assays:
[1] = molecular target: p44ct(368–534) (Chaetomium thermophilum); assay: ITC
[2] = molecular target: full length p44hs (Homo sapiens, UniProt Q13888 1-395); assay: co-IP
Sequence of full length p44hs (Q13888 whole entry): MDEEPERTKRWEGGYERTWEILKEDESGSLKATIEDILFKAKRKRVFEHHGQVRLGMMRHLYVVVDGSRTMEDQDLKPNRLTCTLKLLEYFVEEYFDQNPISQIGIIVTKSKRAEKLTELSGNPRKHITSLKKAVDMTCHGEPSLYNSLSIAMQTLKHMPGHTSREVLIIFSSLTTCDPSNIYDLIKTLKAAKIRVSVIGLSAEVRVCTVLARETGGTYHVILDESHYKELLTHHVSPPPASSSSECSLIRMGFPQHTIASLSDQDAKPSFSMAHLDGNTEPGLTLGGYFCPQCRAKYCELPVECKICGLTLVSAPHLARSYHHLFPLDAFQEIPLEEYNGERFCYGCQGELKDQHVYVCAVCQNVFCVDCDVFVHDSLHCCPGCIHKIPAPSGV

| Molecule | Kd [1] [nM] | dH [1] [kcal/mol] | stoichiometry N [1] | binding result [2] |
| --- | --- | --- | --- | --- |
| p34ct(1–277) (domain or fragment) | 11 | -25 | 0.71 | – |
| B1 | – | – | – | binds |
